From patent US20080182978A1, “ANTI-NGF ANTIBODIES AND METHODS USING SAME” (RINAT NEUROSCIENCE CORP, priority 2002, published 2008)

Test: Dose response of E3 on body weight in arthritic rats (Example 9)
Type: in vivo, rat
Experimental: The ability of E3 to produce reduction in pain in arthritic rats was further investigated by examining the dose response relationship between E3 administration and pain reduction. Rats were treated with adjuvant to induce arthritis as described above. Ten rats not injected with adjuvant were used as non-arthritic controls. Fourteen days after adjuvant injection, animals were qualified into the study based on the criteria stated above, randomized into eight groups of ten rats and tested for the intensity of their vocalization response. They were then dosed on day 14 with saline, or 0.003 mg/kg, 0.01 mg/kg, 0.03 mg/kg, 0.1 mg/kg, 0.3 mg/kg, 1 mg/kg or 5 mg/kg of E3 antibody as described above. Animals were tested for their vocalization response on days 16, 18, 20, and 24. Animals were redosed with saline or the same dose of E3 on day 18 after the vocalization testing. Animals were also weighed each day, starting at day 14. Thus, animals were dosed twice with a given dose of antibody or saline on days 14 and 18, and assessed for pain five times, on days 14, 16, 18, 20 and 24. Data are shown in Tables 20-22 and in FIGS. 20-22.
The effect of treating animals with various doses of anti-NGF antibody E3 on body weight was statistically analyzed by using two-way ANOVA to compare the results obtained pairwise between arthritic animals treated with vehicle with those treated with a given dose of antibody E3. […] At all higher dose of E3, the difference between treated and untreated arthritic animals was significant (p= or <0.0001). […]

[1] = E3 0.003 mg/kg on days 14+18, day 14
[2] = E3 0.003 mg/kg on days 14+18, day 15
[3] = E3 0.003 mg/kg on days 14+18, day 16
[4] = E3 0.003 mg/kg on days 14+18, day 17
[5] = E3 0.003 mg/kg on days 14+18, day 18
[6] = E3 0.003 mg/kg on days 14+18, day 20
[7] = E3 0.003 mg/kg on days 14+18, day 21
[8] = E3 0.003 mg/kg on days 14+18, day 23
[9] = E3 0.003 mg/kg on days 14+18, day 24
[10] = E3 0.01 mg/kg on days 14+18, day 14
[11] = E3 0.01 mg/kg on days 14+18, day 15
[12] = E3 0.01 mg/kg on days 14+18, day 16
[13] = E3 0.01 mg/kg on days 14+18, day 17
[14] = E3 0.01 mg/kg on days 14+18, day 18
[15] = E3 0.01 mg/kg on days 14+18, day 20
[16] = E3 0.01 mg/kg on days 14+18, day 21
[17] = E3 0.01 mg/kg on days 14+18, day 23
[18] = E3 0.01 mg/kg on days 14+18, day 24
[19] = E3 0.03 mg/kg on days 14+18, day 14
[20] = E3 0.03 mg/kg on days 14+18, day 15
[21] = E3 0.03 mg/kg on days 14+18, day 16
[22] = E3 0.03 mg/kg on days 14+18, day 17
[23] = E3 0.03 mg/kg on days 14+18, day 18
[24] = E3 0.03 mg/kg on days 14+18, day 20
[25] = E3 0.03 mg/kg on days 14+18, day 21
[26] = E3 0.03 mg/kg on days 14+18, day 23
[27] = E3 0.03 mg/kg on days 14+18, day 24
[28] = E3 0.1 mg/kg on days 14+18, day 14
[29] = E3 0.1 mg/kg on days 14+18, day 15

B1: E3: humanized, affinity matured anti-NGF antagonist antibody; variable regions SEQ ID NO:1 and 2; human IgG2a (A330P331 to S330S331), kappa (antibody, V domains shown)
VH: QVQLQESGPGLVKPSETLSLTCTVSGFSLIGYDLNWIRQPPGKGLEWIGIIWGDGTTDYNSAVKSRVTISKDTSKNQFSLKLSSVTAADTAVYYCARGGYWYATSYYFDYWGQGTLVTVS
VL: DIQMTQSPSSLSASVGDRVTITCRASQSISNNLNWYQQKPGKAPKLLIYYTSRFHSGVPSRFSGSGSGTDFTFTISSLQPEDIATYYCQQEHTLPYTFGQGTKLEIKRT
modifications: human IgG2a constant (A330S/P331S) and kappa constant missing
Body weight normalized to day 0 (E3 0.003 mg/kg on days 14+18, day 0): 100.00
Body weight normalized to day 0 (E3 0.003 mg/kg on days 14+18, day 1): 98.37
Body weight normalized to day 0 (E3 0.003 mg/kg on days 14+18, day 2): 102.47
Body weight normalized to day 0 (E3 0.003 mg/kg on days 14+18, day 3): 106.54
Body weight normalized to day 0 (E3 0.003 mg/kg on days 14+18, day 4): 110.09
Body weight normalized to day 0 (E3 0.003 mg/kg on days 14+18, day 7): 121.29
Body weight normalized to day 0 (E3 0.003 mg/kg on days 14+18, day 8): 124.44
Body weight normalized to day 0 (E3 0.003 mg/kg on days 14+18, day 9): 125.91
Body weight normalized to day 0 (E3 0.003 mg/kg on days 14+18, day 10): 123.30
Body weight normalized to day 0 (E3 0.003 mg/kg on days 14+18, day 11): 119.55
Body weight normalized to day 0 [1]: 111.50
Body weight normalized to day 14 [1]: 100.00
Body weight normalized to day 0 [2]: 110.63
Body weight normalized to day 14 [2]: 99.20
Body weight normalized to day 0 [3]: 111.08
Body weight normalized to day 14 [3]: 99.58
Body weight normalized to day 0 [4]: 112.06
Body weight normalized to day 14 [4]: 100.46
Body weight normalized to day 0 [5]: 112.60
Body weight normalized to day 14 [5]: 100.90
Body weight normalized to day 0 [6]: 114.17
Body weight normalized to day 14 [6]: 102.26
Body weight normalized to day 0 [7]: 115.25
Body weight normalized to day 14 [7]: 103.16
Body weight normalized to day 0 [8]: 118.48
Body weight normalized to day 14 [8]: 106.09
Body weight normalized to day 0 [9]: 118.58
Body weight normalized to day 14 [9]: 106.16
Body weight normalized to day 0 (E3 0.01 mg/kg on days 14+18, day 0): 100.00
Body weight normalized to day 0 (E3 0.01 mg/kg on days 14+18, day 1): 98.86
Body weight normalized to day 0 (E3 0.01 mg/kg on days 14+18, day 2): 102.61
Body weight normalized to day 0 (E3 0.01 mg/kg on days 14+18, day 3): 106.29
Body weight normalized to day 0 (E3 0.01 mg/kg on days 14+18, day 4): 110.61
Body weight normalized to day 0 (E3 0.01 mg/kg on days 14+18, day 7): 121.59
Body weight normalized to day 0 (E3 0.01 mg/kg on days 14+18, day 8): 124.47
Body weight normalized to day 0 (E3 0.01 mg/kg on days 14+18, day 9): 125.82
Body weight normalized to day 0 (E3 0.01 mg/kg on days 14+18, day 10): 123.87
Body weight normalized to day 0 (E3 0.01 mg/kg on days 14+18, day 11): 121.20
Body weight normalized to day 0 [10]: 111.80
Body weight normalized to day 14 [10]: 100.00
Body weight normalized to day 0 [11]: 110.85
Body weight normalized to day 14 [11]: 99.18
Body weight normalized to day 0 [12]: 110.98
Body weight normalized to day 14 [12]: 99.33
Body weight normalized to day 0 [13]: 111.42
Body weight normalized to day 14 [13]: 99.69
Body weight normalized to day 0 [14]: 112.54
Body weight normalized to day 14 [14]: 100.69
Body weight normalized to day 0 [15]: 114.82
Body weight normalized to day 14 [15]: 102.70
Body weight normalized to day 0 [16]: 114.76
Body weight normalized to day 14 [16]: 102.63
Body weight normalized to day 0 [17]: 116.76
Body weight normalized to day 14 [17]: 104.41
Body weight normalized to day 0 [18]: 116.56
Body weight normalized to day 14 [18]: 104.23
Body weight normalized to day 0 (E3 0.03 mg/kg on days 14+18, day 0): 100.00
Body weight normalized to day 0 (E3 0.03 mg/kg on days 14+18, day 1): 98.67
Body weight normalized to day 0 (E3 0.03 mg/kg on days 14+18, day 2): 102.05
Body weight normalized to day 0 (E3 0.03 mg/kg on days 14+18, day 3): 105.31
Body weight normalized to day 0 (E3 0.03 mg/kg on days 14+18, day 4): 109.24
Body weight normalized to day 0 (E3 0.03 mg/kg on days 14+18, day 7): 117.15
Body weight normalized to day 0 (E3 0.03 mg/kg on days 14+18, day 8): 118.52
Body weight normalized to day 0 (E3 0.03 mg/kg on days 14+18, day 9): 118.60
Body weight normalized to day 0 (E3 0.03 mg/kg on days 14+18, day 10): 115.26
Body weight normalized to day 0 (E3 0.03 mg/kg on days 14+18, day 11): 112.94
Body weight normalized to day 0 [19]: 108.37
Body weight normalized to day 14 [19]: 100.00
Body weight normalized to day 0 [20]: 108.68
Body weight normalized to day 14 [20]: 100.34
Body weight normalized to day 0 [21]: 109.21
Body weight normalized to day 14 [21]: 100.89
Body weight normalized to day 0 [22]: 110.16
Body weight normalized to day 14 [22]: 101.80
Body weight normalized to day 0 [23]: 111.14
Body weight normalized to day 14 [23]: 102.70
Body weight normalized to day 0 [24]: 113.17
Body weight normalized to day 14 [24]: 104.51
Body weight normalized to day 0 [25]: 113.80
Body weight normalized to day 14 [25]: 105.08
Body weight normalized to day 0 [26]: 114.93
Body weight normalized to day 14 [26]: 106.14
Body weight normalized to day 0 [27]: 114.99
Body weight normalized to day 14 [27]: 106.23
Body weight normalized to day 0 (E3 0.1 mg/kg on days 14+18, day 0): 100.00
Body weight normalized to day 0 (E3 0.1 mg/kg on days 14+18, day 1): 99.31
Body weight normalized to day 0 (E3 0.1 mg/kg on days 14+18, day 2): 102.87
Body weight normalized to day 0 (E3 0.1 mg/kg on days 14+18, day 3): 106.26
Body weight normalized to day 0 (E3 0.1 mg/kg on days 14+18, day 4): 110.20
Body weight normalized to day 0 (E3 0.1 mg/kg on days 14+18, day 7): 120.50
Body weight normalized to day 0 (E3 0.1 mg/kg on days 14+18, day 8): 123.48
Body weight normalized to day 0 (E3 0.1 mg/kg on days 14+18, day 9): 125.46
Body weight normalized to day 0 (E3 0.1 mg/kg on days 14+18, day 10): 123.95
Body weight normalized to day 0 (E3 0.1 mg/kg on days 14+18, day 11): 121.98
Body weight normalized to day 0 [28]: 113.90
Body weight normalized to day 14 [28]: 100.00
Body weight normalized to day 0 [29]: 113.66
Body weight normalized to day 14 [29]: 99.83
Body weight normalized to day 0 (E3 0.1 mg/kg on days 14+18, day 16): 115.06
